The text below walks through data of patent US6355473.

Holding throughout (assay): cell-based or functional assay
Test [1] deals with human melanocortin receptor 4 (hMCR4), native form (human) (UniProt P32245).
Test [2] addresses All the receptor forms tested (hNocR, Ste2-hNocR, Inv-hNocR, αF-hNocR) in the stp22 strains.
Test [3] has as its target αF-hSSTR3 (yeast; human).

Chain of αF-hSSTR3 (yeast; human) (P01149 other isoform, or with tags, fused parts or gaps): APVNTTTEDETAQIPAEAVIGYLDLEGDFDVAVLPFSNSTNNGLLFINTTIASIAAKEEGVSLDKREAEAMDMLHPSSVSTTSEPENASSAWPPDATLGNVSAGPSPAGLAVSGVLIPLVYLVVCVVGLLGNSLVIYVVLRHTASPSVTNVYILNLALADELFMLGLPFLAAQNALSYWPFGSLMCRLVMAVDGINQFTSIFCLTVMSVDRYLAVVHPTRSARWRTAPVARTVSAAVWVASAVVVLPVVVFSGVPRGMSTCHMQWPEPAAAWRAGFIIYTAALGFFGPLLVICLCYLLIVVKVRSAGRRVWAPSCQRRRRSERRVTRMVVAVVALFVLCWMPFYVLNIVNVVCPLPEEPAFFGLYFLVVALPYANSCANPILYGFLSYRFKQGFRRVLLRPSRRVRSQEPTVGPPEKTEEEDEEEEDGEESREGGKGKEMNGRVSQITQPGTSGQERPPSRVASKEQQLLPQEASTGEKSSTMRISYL
Chain of UniProt P32245 (P32245 whole entry): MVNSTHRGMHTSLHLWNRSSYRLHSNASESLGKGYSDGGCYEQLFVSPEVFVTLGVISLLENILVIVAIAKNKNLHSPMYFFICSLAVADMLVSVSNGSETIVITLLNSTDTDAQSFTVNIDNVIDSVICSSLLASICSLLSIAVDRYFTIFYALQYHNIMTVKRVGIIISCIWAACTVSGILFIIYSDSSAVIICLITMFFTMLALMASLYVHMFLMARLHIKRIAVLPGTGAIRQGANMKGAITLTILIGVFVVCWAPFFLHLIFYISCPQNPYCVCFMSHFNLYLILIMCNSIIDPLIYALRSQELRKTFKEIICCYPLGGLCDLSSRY

NDP-α-MSH (peptide) gave a Specific ligand-induced levels of β-galactosidase activity (FUS1-lacZ), stp22 strain compared with wild type in test [1] of 2 fold.
FGGFTGARKSARKLANQ (peptide, UniProt Q13519 130-146, looked up) [nociceptin] came in with a maximal increase in the levels of β-galactosidase activity (FUS1-lacZ induction), stp22 strains in test [2] of 10 to 40 fold.
For the molecule AGCKNFFWKTFTSC (peptide, UniProt P61278 103-116, looked up) [Somatostatin-14], in test [3], the decrease of EC50 of FUS1-lacZ induction, stp22 strain compared with wild type came out at 50% and the levels of FUS1-lacZ induction (β-galactosidase activity), stp22 strain compared with wild type came to 2 fold.
